# Reference: US20250121104A1 (FUSION PHARMACEUTICALS, published 2025)
# Legend:
# Ron (CD136) = target: T1, Ron (CD136) (UniProt Q04912 25-957, limits assumed); experiment: ELISA, antigen coated at 1 µg/mL, antibody titrated from 10 µg/mL
# T1 sequence (looked up): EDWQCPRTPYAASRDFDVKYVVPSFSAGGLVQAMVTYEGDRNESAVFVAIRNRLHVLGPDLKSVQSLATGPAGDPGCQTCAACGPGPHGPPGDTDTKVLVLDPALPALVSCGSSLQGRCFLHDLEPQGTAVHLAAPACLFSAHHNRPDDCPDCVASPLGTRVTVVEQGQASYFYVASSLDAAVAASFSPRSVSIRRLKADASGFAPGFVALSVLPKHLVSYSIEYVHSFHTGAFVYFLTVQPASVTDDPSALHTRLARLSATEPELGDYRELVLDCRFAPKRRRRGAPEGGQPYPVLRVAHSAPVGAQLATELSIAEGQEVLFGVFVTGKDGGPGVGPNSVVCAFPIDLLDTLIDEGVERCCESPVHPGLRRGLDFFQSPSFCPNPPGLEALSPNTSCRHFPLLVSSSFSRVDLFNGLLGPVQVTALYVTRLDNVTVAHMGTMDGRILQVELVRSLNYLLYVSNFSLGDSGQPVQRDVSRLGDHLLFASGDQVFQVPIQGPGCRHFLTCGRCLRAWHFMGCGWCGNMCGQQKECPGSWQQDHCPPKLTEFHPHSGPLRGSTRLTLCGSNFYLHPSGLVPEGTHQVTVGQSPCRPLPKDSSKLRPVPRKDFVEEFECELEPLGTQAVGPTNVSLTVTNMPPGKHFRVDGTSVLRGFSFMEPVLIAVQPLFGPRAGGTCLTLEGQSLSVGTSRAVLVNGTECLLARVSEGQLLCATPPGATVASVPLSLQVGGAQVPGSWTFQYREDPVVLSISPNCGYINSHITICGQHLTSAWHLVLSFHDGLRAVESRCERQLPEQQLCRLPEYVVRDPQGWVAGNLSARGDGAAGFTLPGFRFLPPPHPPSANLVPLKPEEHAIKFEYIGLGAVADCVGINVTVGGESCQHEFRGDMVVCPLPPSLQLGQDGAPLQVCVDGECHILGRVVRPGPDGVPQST
# [1] = target: T2, EGFR and cMET co-expressed on the surface of tumour cell lines (HCC827, HT29, H441, H1975) (UniProt P00533 25-1210; P08581 25-1390); experiment: confocal fluorescence microscopy, AlexaFluor647-labelled antibody pre-bound to cells, T=0
# T2 construct: whole, on cells; Target of the bispecific molecules on cells that carry both receptors; the cell line of each value stands under assay; also called EGFR and c-MET expressing cell line; EGFR and/or cMET expressing cell lines
# Procedure: Unincorporated CellTracker™ Blue CMAC dye was removed by two washes with phenol-free RPMI using centrifugation at 300×g for 5 min at 4° C. Cells were then chilled on ice and blocked with the 10 ul FcR Blocking Reagent per 1×10^6 cells for 15 minutes. 2×10⁵ cells were aliquoted into 5 mL round-bottomed tubes and incubated with fluorescent antibodies at a final concentration of 2.5 μg/mL. After removal of unbound fluorescent reagents by centrifugation at 4° C., cells were resuspended in phenol-free RPMI containing 100 mM HEPES, 1 mM sodium pyruvate, and 1% FBS. Cells were transferred into multiple wells of a 384-well imaging plate at a density of 5,000 cells per well, and briefly centrifuged at 2,200 rpm for 2 min at 4° C. prior to image acquisition.
binder,measurement,setting,value
"RAA22/B09-57 DuetMab (bispecific antibody, V domains shown, RAA22 VH on Hole heavy chain (T366S, L368A, Y407V, Y349C) with lambda CL; cysteine insertion after S239; also called RAA22/B09 DuetMab; RAA22/B09 bispecific mAb) VH 1: QVQLVQSGAEVKKPGSSVKVSCKASGGTFSDNDFSWVRQAPGQGLEWMGAIVAVFRTETYAQKFQDRVKITADISTRTTYMELSSLRSEDTAVYYCARRLMSAISGPGAPLLMWGQGTLVTVSS VL 1: QSALTQPRSVSGSPGQSVTISCTGTSSDVGGYNYVSWYQQHPGKAPKLMIYDVSKRPSGVPDRFSGSKSGNTASLTISGLQAEDEADYYCSSYTSSDTLEIFGGGTKLTVL VH 2: QVQLVQSGAEVKKPGASVKVSCKASGYTFTDYYIHWVRQATGQGLEWMGWMNPNSGNTGYAQKFQGRVTMTRDTSISTAYMELSSLRSEDTAVYYCARGQGYTHSWGQGTMVTVSS VL 2: DIQMTQSPSTLSASVGDRVTITCRASEGIYHWLAWYQQKPGKAPKLLIYKASSLASGVPSRFSGSGSGTEFTLTISSLQPDDFATYYCQQYSNYPPTFGGGTKLEIK",binding result,Ron (CD136),no binding (tested: 10 µg/mL)
same,fold binding on HCC827 cells over H1975 cells,[1],8.9 fold
